This data set deals with the molecule itself. The data set can be described thus: cryo-EM structure; 15-20uM recombinant Pil1 with ~2mg/mL LUVs of three lipid mixtures (-PI(4,5)P2/+sterol, +PI(4,5)P2/-sterol, +PI(4,5)P2/+sterol), 30°C for 1hr, 20 mM HEPES pH 7.4, 150 mM KoAc, 2 mM MgAc; helical reconstruction.

The values that follow come from article doi:10.1101/2023.08.25.554800, “CryoEM architecture of a native stretch-sensitive membrane microdomain” (bioRxiv, 2023).

B1: Recombinant Pil1 (natural protein, S. cerevisiae, UniProt P53252 1-339, looked up)
chain: MHRTYSLRNSRAPTASQLQNPPPPPSTTKGRFFGKGGLAYSFRRSAAGAFGPELSRKLSQLVKIEKNVLRSMELTANERRDAAKQLSIWGLENDDDVSDITDKLGVLIYEVSELDDQFIDRYDQYRLTLKSIRDIEGSVQPSRDRKDKITDKIAYLKYKDPQSPKIEVLEQELVRAEAESLVAEAQLSNITRSKLRAAFNYQFDSIIEHSEKIALIAGYGKALLELLDDSPVTPGETRPAYDGYEASKQIIIDAESALNEWTLDSAQVKPTLSFKQDYEDFEPEEGEEEEEEDGQGRWSEDEQEDGQIEEPEQEEEGAVEEHEQVGHQQSESLPQQTTA
notes: Pil1 of S. cerevisiae, PIL1 cloned into pCoofy6; the printed primers run from the ATG to the stop codon; The N-terminal position of Sumo3 is read from the primer LP1-Sumo3-Pil1-fwd; also called reconstituted Pil1; source: E. coli BL21(DE3)pLysS, purified (HisTrap, HiTrap Q, Sumo3 cleaved with SenP2, Superdex 200); not shown: Sumo3, N-terminal, cleaved
In the case of B1, the binding result is reported as “binds”.
